Biological target: T1, Rev (HIV-1) (UniProt P04618)
T1 sequence: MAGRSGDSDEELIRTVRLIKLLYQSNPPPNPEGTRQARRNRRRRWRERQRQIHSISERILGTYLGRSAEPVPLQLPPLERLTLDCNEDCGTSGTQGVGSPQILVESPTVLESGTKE
Experiment: EMSA
Details: native 4% PAGE; constant 32P-RRE RNA with 20, 40 or 80 ng Rev; buffer, salt, pH and temperature not given

**Q.** For “GAGAAGAGUGGUGCAGAGAGAAAAAAGAGCAGUGGGAACAAUAGGAGCUAUGUUCCUUGGGUCCUUGGGAGCAGCAGGAAGCACUAUGGGCGCAGCGUCAAUAACGCUGACGGUACAGGCCAGACAAUUACUGUCUGGUAUAGUGCAACAGCAAAACAACUUGCUGAGGGCUAUUGAGGCGCAACAACAUCUGUUGCAACUCACAGUCUGGGGCAUCAAGCAGCUCCAGGCGAGAGUCCUGGCUGUGGAAAGAUACCUAAGGGAUCAACAGCUCCUAGGGAUUUGGGGUUGCUCUGGAAGACUCAUUUGCACCACUGCUGUGCCUUGGAAUG [RREWT (40Q-45L)]”, which binding signal (% RNA shifted) is on record?
**A.** The binding signal (% RNA shifted) was 96.
